Results reported in paper PMC5870375, “Amyloid-beta modulates microglial responses by binding to the triggering receptor expressed on myeloid cells 2 (TREM2)” (Molecular Neurodegeneration, 2018).

The binders below were run against T1, oligomeric amyloid-β 1–42 (UniProt P05067 672-713) (assay: ELISA; solid phase binding assay: 96-well plate coated with 100 nM oAβ1-42 in PBS overnight at 4 °C, blocked with 4% BSA; purified Fc or sTREM2-Fc proteins in PBST with 0.5% BSA, 30 min at 37 °C; detected with biotinylated anti-Fc antibody, avidin-HRP, TMB, read at 620 nm). Settings: both partners purified.
T1 construct: amyloid-beta 1-42, cut product of the amyloid precursor protein (APP); numbers count on: the Aβ peptide; Heterogeneous mixture of low-n and high-n oligomers, prepared without separation of monomeric Aβ; also called oAβ_(1–42); oAβ; source: synthetic peptide, bought: AnaSpec (AS-20276); oligomers made by incubation at 22 °C for 16 h, then 4 °C for 24 h, supernatant after 16,000×g

Binder	binding result
sTREM2-Fc fragment carrying residues 1–91 (Fc fusion, human, UniProt Q9NZC2 19-91, looked up, signal peptide in the construct; human TREM2, C-terminally truncated extracellular domain, residues 1-91) HNTTVFQGVAGQSLQVSCPYDSMKHWGRRKAWCRQLGEKGPCQRVVSTHNLWLLSFLRRWNGSTAITDDTLGG	binds
sTREM2-Fc fragment carrying residues 1–151 (Fc fusion, human, UniProt Q9NZC2 19-151, looked up, signal peptide in the construct; human TREM2, C-terminally truncated extracellular domain, residues 1-151) HNTTVFQGVAGQSLQVSCPYDSMKHWGRRKAWCRQLGEKGPCQRVVSTHNLWLLSFLRRWNGSTAITDDTLGGTLTITLRNLQPHDAGLYQCQSLHGSEADTLRKVLVEVLADPLDHRDAGDLWFPGESESFE	binds
sTREM2-Fc fragment carrying residues 1–71 (Fc fusion, human, UniProt Q9NZC2 19-71, looked up, signal peptide in the construct; human TREM2, C-terminally truncated extracellular domain, residues 1-71) HNTTVFQGVAGQSLQVSCPYDSMKHWGRRKAWCRQLGEKGPCQRVVSTHNLWL	binds
sTREM2-Fc fragment carrying residues 1–131 (Fc fusion, human, UniProt Q9NZC2 19-131, looked up, signal peptide in the construct) HNTTVFQGVAGQSLQVSCPYDSMKHWGRRKAWCRQLGEKGPCQRVVSTHNLWLLSFLRRWNGSTAITDDTLGGTLTITLRNLQPHDAGLYQCQSLHGSEADTLRKVLVEVLAD	binds

The remaining lines, values ahead:

binding result	Binder
binds	HNTTVFQGVAGQSLQVSCPYDSMKHWGRRKAWC (Fc fusion, human, UniProt Q9NZC2 19-51, looked up, signal peptide in the construct; human TREM2, C-terminally truncated extracellular domain, residues 1-51) [sTREM2-Fc fragment carrying residues 1–51]
binds	sTREM2-Fc fragment carrying residues 1–111 (Fc fusion, human, UniProt Q9NZC2 19-111, looked up, signal peptide in the construct) HNTTVFQGVAGQSLQVSCPYDSMKHWGRRKAWCRQLGEKGPCQRVVSTHNLWLLSFLRRWNGSTAITDDTLGGTLTITLRNLQPHDAGLYQCQ
